Assay results from the supplement of paper PMC5998384.

Assays:
HeLa Kyoto [1] = assay: melting temperature (median over replicates), in situ; higher = more thermally stable
HeLa Kyoto [2] = assay: solubility in G1/S (NP-40 vs SDS abundance) (log2 ratio); higher = more soluble; conditions: cell cycle stage: G1/S
HeLa Kyoto [3] = assay: solubility change mitosis vs G1/S (difference of NP-40 vs SDS log2 ratios) (log2 ratio difference); higher = more soluble in mitosis
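For melting temperature (median over replicates), in situ in this document: HeLa Kyoto cells synchronized by double thymidine or nocodazole block, proteins quantified by TMT10plex mass spectrometry, three independent biological replicates.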
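For solubility change mitosis vs G1/S (difference of NP-40 vs SDS log2 ratios) in this document: synchronized HeLa Kyoto cells (double thymidine block for G1/S, nocodazole release for mitosis), protein amounts in NP-40 versus SDS lysates quantified by mass spectrometry, three biological replicates.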
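For solubility in G1/S (NP-40 vs SDS abundance) in this document: HeLa Kyoto cells arrested at G1/S by double thymidine block, proteins quantified by TMT10plex mass spectrometry in mild NP-40 versus SDS extracts, three biological replicates.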

Row | Sequence | melting temperature (HeLa Kyoto [1]; cell cycle stage: G1/S) [°C] | solubility in G1/S (log2) (HeLa Kyoto [2]) | solubility change mitosis (log2) (HeLa Kyoto [3]) | melting temperature (HeLa Kyoto [1]; cell cycle stage: mitosis) [°C]
1 | MAERPEDLNLPNAVITRIIKEALPDGVNISKEARSAISRAASVFVLYATSCANNFAMKGKRKTLNASDVLSAMEEMEFQRFVTPLKEALEAYRREQKGKKEASEQKKKDKDKKTDSEEQDKSRDEDNDEDEERLEEEEQNEEEEVDN [POLE3] | 49.2 | 0.357 | 0.5 | –
2 | MAGVSYAAPWWVSLLHRLPHFDLSWEATSSQFRPEDTDYQQALLLLGAAALACLALDLLFLLFYSFWLCCRRRKSEEHLDADCCCTAWCVIIATLVCSAGIAVGFYGNGETSDGIHRATYSLRHANRTVAGVQDRVWDTAVGLNHTAEPSLQTLERQLAGRPEPLRAVQRLQGLLETLLGYTAAIPFWRNTAVSLEVLAEQVDLYDWYRWLGYLGLLLLDVIICLLVLVGLIRSSKGILVGVCLLGVLALVISWGALGLELAVSVGSSDFCVDPDAYVTKMVEEYSVLSGDILQYYLACSPRAANPFQQKLSGSHKALVEMQDVVAELLRTVPWEQPATKDPLLRVQEVLNGTEVNLQHLTALVDCRSLHLDYVQALTGFCYDGVEGLIYLALFSFVTALMFSSIVCSVPHTWQQKRGPDEDGEEEAAPGPRQAHDSLYRVHMPSLYSCGSSYGSETSIPAAAHTVSNAPVTEYMSQNANFQNPRCENTPLIGRESPPPSYTSSMRAKYLATSQPRPDSSGSH [TTYH3] | 55.3 | 0.256 | -0.146 | 56.1
3 | MAHAGGGSGGSGAGGPAGRGLSGARWGRSGSAGHEKLPVHVEDALTYLDQVKIRFGSDPATYNGFLEIMKEFKSQSIDTPGVIRRVSQLFHEHPDLIVGFNAFLPLGYRIDIPKNGKLNIQSPLTSQENSHNHGDGAEDFKQQVPYKEDKPQVPLESDSVEFNNAISYVNKIKTRFLDHPEIYRSFLEILHTYQKEQLNTRGRPFRGMSEEEVFTEVANLFRGQEDLLSEFGQFLPEAKRSLFTGNGPCEMHSVQKNEHDKTPEHSRKRSRPSLLRPVSAPAKKKMKLRGTKDLSIAAVGKYGTLQEFSFFDKVRRVLKSQEVYENFLRCIALFNQELVSGSELLQLVSPFLGKFPELFAQFKSFLGVKELSFAPPMSDRSGDGISREIDYASCKRIGSSYRALPKTYQQPKCSGRTAICKELDHWTLLQGSWTDDYCMSKFKNTCWIPGYSAGVLNDTWVSFPSWSEDSTFVSSKKTPYEEQLHRCEDERFELDVVLETNLATIRVLESVQKKLSRMAPEDQEKFRLDDSLGGTSEVIQRRAIYRIYGDKAPEIIESLKKNPVTAVPVVLKRLKAKEEEWREAQQGFNKIWREQYEKAYLKSLDHQAVNFKQNDTKALRSKSLLNEIESVYDEHQEQHSEGRSAPSSEPHLIFVYEDRQILEDAAALISYYVKRQPAIQKEDQGTIHQLLHQFVPSLFFSQQLDLGASEESADEDRDSPQGQTTDPSERKKPAPGPHSSPPEEKGAFGDAPATEQPPLPPPAPHKPLDDVYSLFFANNNWYFFLRLHQTLCSRLLKIYRQAQKQLLEYRTEKEREKLLCEGRREKGSDPAMELRLKQPSEVELEEYYPAFLDMVRSLLEGSIDPTQYEDTLREMFTIHAYVGFTMDKLVQNIARQLHHLVSDDVCLKVVELYLNEKKRGAAGGNLSSRCVRAARETSYQWKAERCMADENCFKVMFLQRKGQVIMTIELLDTEEAQTEDPVEVQHLARYVEQYVGTEGASSSPTEGFLLKPVFLQRNLKKFRRRWQSEQARALRGEARSSWKRLVGVESACDVDCRFKLSTHKMVFIVNSEDYMYRRGTLCRAKQVQPLVLLRHHQHFEEWHSRWLEDNVTVEAASLVQDWLMGEEDEDMVPCKTLCETVHVHGLPVTRYRVQYSRRPASP [SIN3B] | 47.9 | -0.231 | 0.0177 | 49.3
4 | MALLFLLPLVMQGVSRAEMGTADLGPSSVPTPTNVTIESYNMNPIVYWEYQIMPQVPVFTVEVKNYGVKNSEWIDACINISHHYCNISDHVGDPSNSLWVRVKARVGQKESAYAKSEEFAVCRDGKIGPPKLDIRKEEKQIMIDIFHPSVFVNGDEQEVDYDPETTCYIRVYNVYVRMNGSEIQYKILTQKEDDCDEIQCQLAIPVSSLNSQYCVSAEGVLHVWGVTTEKSKEVCITIFNSSIKGSLWIPVVAALLLFLVLSLVFICFYIKKINPLKEKSIILPKSLISVVRSATLETKPESKYVSLITSYQPFSLEKEVVCEEPLSPATVPGMHTEDNPGKVEHTEELSSITEVVTTEENIPDVVPGSHLTPIERESSSPLSSNQSEPGSIALNSYHSRNCSESDHSRNGFDTDSSCLESHSSLSDSEFPPNNKGEIKTEGQELITVIKAPTSFGYDKPHVLVDLLVDDSGKESLIGYRPTEDSKEFS [IFNGR1] | – | 0.103 | -0.126 | 55.3
5 | MALTVDVAGPAPWGFRITGGRDFHTPIMVTKVAERGKAKDADLRPGDIIVAINGESAEGMLHAEAQSKIRQSPSPLRLQLDRSQATSPGQTNGDSSLEVLATRFQGSVRTYTESQSSLRSSYSSPTSLSPRAGSPFSPPPSSSSLTGEAAISRSFQSLACSPGLPAADRLSYSGRPGSRQAGLGRAGDSAVLVLPPSPGPRSSRPSMDSEGGSLLLDEDSEVFKMLQENREGRAAPRQSSSFRLLQEALEAEERGGTPAFLPSSLSPQSSLPASRALATPPKLHTCEKCSTSIANQAVRIQEGRYRHPGCYTCADCGLNLKMRGHFWVGDELYCEKHARQRYSAPATLSSRA [PDLIM2] | 55.6 | 0.17 | -0.043 | 53.8
6 | MALVRGAEPAAGPSRWLPTHVQVTVLRARGLRGKSSGAGSTSDAYTVIQVGREKYSTSVVEKTHGCPEWREECSFELPPGALDGLLRAQEADAGPAPWAASSAAACELVLTTMHRSLIGVDKFLGQATVALDEVFGAGRAQHTQWYKLHSKPGKKEKERGEIEVTIQFTRNNLSASMFDLSMKDKPRSPFSKIRDKMKGKKKYDLESASAILPSSAIEDPDLGSLGKMGKAKGFFLRNKLRKSSLTQSNTSLGSDSTLSSASGSLAYQGPGAELLTRSPSRSSWLSTEGGRDSAQSPKLFTHKRTYSDEANQMRVAPPRALLDLQGHLDAASRSSLCVNGSHIYNEEPQGPVRHRSSISGSLPSSGSLQAVSSRFSEEGPRSTDDTWPRGSRSNSSSEAVLGQEELSAQAKVLAPGASHPGEEEGARLPEGKPVQVATPIVASSEAVAEKEGARKEERKPRMGLFHHHHQGLSRSELGRRSSLGEKGGPILGASPHHSSSGEEKAKSSWFGLREAKDPTQKPSPHPVKPLSAAPVEGSPDRKQSRSSLSIALSSGLEKLKTVTSGSIQPVTQAPQAGQMVDTKRLKDSAVLDQSAKYYHLTHDELISLLLQRERELSQRDEHVQELESYIDRLLVRIMETSPTLLQIPPGPPK [RAB11FIP5] | 50.1 | 0.0739 | -0.217 | 49.3
7 | MAPLRFSANLSWLFPELSGLPARVRAAGSSGFEAVEVAWPYAETPEALARAAREAGLRLVLINTPPGDQEKGEMGLGAVPGRQAAFREGLEQAVRYAKALGCPRIHLMAGRVPQGADRIAVKAEMEAVFLENLRHAAGVLAQEDLVGLLEPINTRITDPQYFLDTPQQAAAILQKVGRPNLQLQMDIFHWQIMDGNLTGNIREFLPIVGHVQVAQVPGRGEPSSPGELNFPYLFQLLEDEGYKGFVGCEYQPRGDTVEGLSWLRSYWDRRGHPEAGQ [HYI] | 55.2 | 0.344 | 0.234 | 54.7
8 | MAPRGRKRKAEAAVVAVAEKREKLANGGEGMEEATVVIEHCTSURVYGRNAAALSQALRLEAPELPVKVNPTKPRRGSFEVTLLRPDGSSAELWTGIKKGPPRKLKFPEPQEVVEELKKYLS [SELH] | – | -0.0665 | 0.17 | 52.2
9 | MAQKRPACTLKPECVQQLLVCSQEAKKSAYCPYSHFPVGAALLTQEGRIFKGCNIENACYPLGICAERTAIQKAVSEGYKDFRAIAIASDMQDDFISPCGACRQVMREFGTNWPVYMTKPDGTYIVMTVQELLPSSFGPEDLQKTQ [CDA] | 54.4 | 0.37 | -0.0534 | 54
10 | MASREEVLALQAEVAQREEELNSLKQKLASALLAEQEPQPERLVPVSPLPPKAALSRDEILRYSRQLVLPELGVHGQLRLGTACVLIVGCGGLGCPLAQYLAAAGVGRLGLVDYDVVEMSNLARQVLHGEALAGQAKAFSAAASLRRLNSAVECVPYTQALTPATALDLVRRYDVVADCSDNVPTRYLVNDACVLAGRPLVSASALRFEGQITVYHYDGGPCYRCIFPQPPPAETVTNCADGGVLGVVTGVLGCLQALEVLKIAAGLGPSYSGSLLLFDALRGHFRSIRLRSRRLDCAACGERPTVTDLLDYEAFCGSSATDKCRSLQLLSPEERVSVTDYKRLLDSGAFHLLLDVRPQVEVDICRLPHALHIPLKHLERRDAESLKLLKEAIWEEKQGTQEGAAVPIYVICKLGNDSQKAVKILQSLSAAQELDPLTVRDVVGGLMAWAAKIDGTFPQY [MOCS3] | 51.3 | 0.156 | -0.0562 | 49.5
